Experimental data as given in patent US20230050056A1, “METHOD FOR SCREENING PORE-FORMING MEMBRANE PROTEINS, MEMBRANE TR[…] MOLECULAR SWITCHES” (TECHNISCHE UNIVERSITÄT DARMSTADT, priority 2019, published 2023).

How the values were obtained:
[1] = system: inner membrane of E. coli; format: cell-based, E. coli BL21(DE3)
[2] = system: inner membrane of E. coli; assay: G-GECO1 fluorescence screening of the 3xNNK S2168 pinholin library in microtiter plates (Example 12); details: for Comment: effect on pore formation: measured at the half-maximum time c, N-terminal variants of S21-71; for Slope [d]: sigmoid fit with equation 1 (high d = low slope), G-GECO1; for Slope [d] / Half-maximum time [c]: pCTRL2.T7.100.sRBS library; for Half-maximum time [c]: sigmoid fit with equation 1, G-GECO1, 0.5 mM IPTG
Experimental: Colonies of BL21(DE3) on LB agar from 3. were picked and cultivated in deep well plates with 300 μl of LB medium with the necessary antibiotics overnight for about 16 h at 37° C. and 1300 rpm.
After cultivating individual clones from 4. overnight, the OD600 of the precultures in microtiter plates was adjusted to 0.1, and the samples, 200 μL each, were shaken at 37° C. and 180 rpm for 30 min. Within the framework of the pCTRL2-^3×NNKS^2168 library, 271 clones were thus picked. Within the framework of the pCTRL2.T7.100.sRBS-^3×NNKS^2168 library, 576 clones were picked.
Subsequently, all nanopore variants were then induced with 0.5 mM IPTG, and the fluorescence was measured over another 190 min.
General information: The measurement in the reader is carried out at 30° C. every 3 min. The plate is shaken at 180 rpm between the measurements. The OD600 and the fluorescence (Ex: 485 nm; Em: 525 nm) are measured. The volume in the cavities is 200 μl after addition of all inductors.
For the analysis, the curves were fitted empirically with equation 1 in order to quantitatively determine the half-maximum time c or the slope d, for example.

[3] = system: E. coli; assay: G-GECO1 single-cell fluorescence microscopy in a microfluidic cultivation chamber (Example 11); details: for G-GECO1 fluorescent signal after expression: pCTRL2.T7.100 constructs, 0.5 mM IPTG
Experimental: Colonies of BL21(DE3) on LB agar plates from 1. were picked and cultivated in culture tubes with 2 ml of LB medium and the necessary antibiotics overnight for about 16 h at 37° C. and 180 rpm.
After the cultivation of individual clones from 2. overnight, the cells were transferred to fresh sterile-filtered LB medium, the OD600 of the precultures was 20 adjusted to 0.1, and subsequently grown at 37° C. for a period of 3 h up to an OD600 of 2.
For the cultivation and functional fluorescence-microscopic examination of the cells in a microfluidic cultivation chamber, it was possible to use a previously published microfluidic chip design (see Supplementary FIG. 5 in Nature Communications, 2020, 11, 2746).
After the microfluidic chip was flooded with LB medium, the cells were added and the flow rate through the microfluidic chip was adjusted to 1 μl/min. The cells were left in the microfluidic chip at 37° C. for 3 h, so that they were able to collect and grow accordingly in the cultivation chambers.
Thereafter, the expression of G-GECO1 was induced by a change to LB medium with 25 mM sodium propionate, pH 8.0, at 30° C. for 2 h.
Subsequently, the nanopores were then induced by a change to LB medium with 0.5 mM IPTG, and the development of the fluorescent signal was measured over 16 h.
The fluorescent signal was measured by means of a fluorescence microscope at 30° C. in intervals of 3 minutes. A transmitted-light image and then a fluorescence image (Ex: 488 nm; Em: 504-539 nm) in the form of a Z-stack were taken each time. From the induction of G-GECO1, a flow rate of 4 μl/min was used.
For the analysis, the entire cells from a single cultivation chamber (shown by way of example in FIG. 23) were analyzed with the aid of image analysis software (Fiji ImageJ 1.51; Nature Methods, 2012, 9, 676-82) and the fluorescence in relative fluorescence units (RFU) was plotted against the time (FIG. 24). Based on the curve of the fluorescent signal, detailed statements about the cell integrity or the outflow and the bleaching behavior of the sensor can then be made.

Molecule: HokB: Pore-forming membrane peptide; forms part of a bacterial efflux or toxin/antitoxin system (MKHNPLVVCLLIICITILTFTLLTRQTLYELRFRDGDKEVAALMACTSR; listed as Escherichia coli)
- iGluSNFr fluorescent signal after co-expression (L-Glu outflow) [1]: reduction in the fluorescence

B1: S^21-71 M4A (protein)
chain: MKSADKISTGIAYGTSAGSAGYWFLQWLDQVSPSQWAAIGVLGSLVLGFLTYLTNLYFKIREDRRKAARGE
modifications: Mutant of S21-71 anti-pinholin of bacteriophage P21
- iGluSNFr fluorescent signal after co-expression (L-Glu outflow) [1]: reduction in the fluorescence

B2: Clone P7D10 (protein)
chain: MAGWDKISTGIAYGTSAGSAGYWFLQWLDQVSPSQWAAIGVLGSLVLGFLTYLTNLYFKIREDRRKAARGE
modifications: Mutant of S21-71 anti-pinholin of bacteriophage P21
- Comment: effect on pore formation [2]: Inhibitory
- Slope [d] [2]: 22.49
- Half-maximum time [c] [2]: 304.1

B3: Clone P15D3 (protein)
chain: MDWDDKISTGIAYGTSAGSAGYWFLQWLDQVSPSQWAAIGVLGSLVLGFLTYLTNLYFKIREDRRKAARGE
modifications: Mutant of S21-71 anti-pinholin of bacteriophage P21
- Comment: effect on pore formation [2]: Accelerating
- Slope [d] [2]: 6.727
- Half-maximum time [c] [2]: 187.4

B4: Clone P14E5 (protein)
chain: MYLEDKISTGIAYGTSAGSAGYWFLQWLDQVSPSQWAAIGVLGSLVLGFLTYLTNLYFKIREDRRKAARGE
modifications: Mutant of S21-71 anti-pinholin of bacteriophage P21
- Comment: effect on pore formation [2]: Accelerating
- Slope [d] [2]: 4.908
- Half-maximum time [c] [2]: 166.1

B5: Clone P3G3 (protein)
chain: MWRGDKISTGIAYGTSAGSAGYWFLQWLDQVSPSQWAAIGVLGSLVLGFLTYLTNLYFKIREDRRKAARGE
modifications: Mutant of S21-71 anti-pinholin of bacteriophage P21
- Comment: effect on pore formation [2]: Inhibitory
- Slope [d] [2]: 47.62
- Half-maximum time [c] [2]: 358.7

B6: Clone P14C11 (protein)
chain: MNFEDKISTGIAYGTSAGSAGYWFLQWLDQVSPSQWAAIGVLGSLVLGFLTYLTNLYFKIREDRRKAARGE
modifications: Mutant of S21-71 anti-pinholin of bacteriophage P21
- Comment: effect on pore formation [2]: Accelerating
- Slope [d] [2]: 6.835
- Half-maximum time [c] [2]: 172.3

B7: Clone P3E5 (protein)
chain: MFQWDKISTGIAYGTSAGSAGYWFLQWLDQVSPSQWAAIGVLGSLVLGFLTYLTNLYFKIREDRRKAARGE
modifications: Mutant of S21-71 anti-pinholin of bacteriophage P21
- Comment: effect on pore formation [2]: Inhibitory
- Slope [d] [2]: 28.25
- Half-maximum time [c] [2]: 483.1

B8: S^21-68: Wild-type of the S^21-68 pinholin of bacteriophage P21 with pronounced and defined pore-forming properties (protein)
chain: MDKISTGIAYGTSAGSAGYWFLQWLDQVSPSQWAAIGVLGSLVLGFLTYLTNLYFKIREDRRKAARGE
modifications: Bacteriophage P21
- cell division after expression [3]: stop quickly
- cellular integrity measured at the form of the cells [3]: remains intact over a comparatively long period of time
- G-GECO1 fluorescent signal after expression [3]: increase quickly

B9: S^107-M3A (protein)
chain: MKAPEKHDLLAAILAAKEQGIGAILAFAMAYLRGRYNGGAFTKTVIDATMCAIIAWFIRDLLDFAGLSSNLAYITSVFIGYIGTDSIGSLIKRFAAKKAGVEDGRNQ
modifications: Mutant of S107 anti-pinholin of bacteriophage lambda
- iGluSNFr fluorescent signal after co-expression (L-Glu outflow) [1]: reduction in the fluorescence

B10: T4 holin Wild-type: Wild-type of the T4 pinholin of bacteriophage T4 with highly pronounced pore-forming properties (protein)
chain: MAAPRISFSPSDILFGVLDRLFKDNATGKVLASRVAVVILLFIMAIVWYRGDSFFEYYKQSKYETYSEIIEKERTARFESVALEQLQIVHISSEADFSAVYSFRPKNLNYFVDIIAYEGKLPSTISEKSLGGYPVDKTMDEYTVHLNGRHYYSNLKFAFLPTKKPTPEINYMYSCPYFNLDNIYAGTITMYWYRNDHISNDRLESICAQAARILGRAK
modifications: Bacteriophage T4
- cell division after expression [3]: stop quickly
- time window before loss of cellular integrity or outflow of the sensor [3]: 30 min
- time within which the fluorescent signal decreases again [3]: ≤ 30 min
- G-GECO1 fluorescent signal after expression [3]: increase quickly
